Results as given in publication PMC2902421, “Molecular cloning and biochemical characterization of a novel erythrose reductase from Candida magnoliae JH110” (Microbial Cell Factories, 2010).

Legend:
Assay type in all cases: biochemical, Entelexis paramagnoliae
[1] = substrate: NC(=O)c1ccc[n+]([C@@H]2O[C@H](COP(=O)(O)OP(=O)(O)OC[C@H]3O[C@@H](n4cnc5c(N)ncnc54)[C@H](OP(=O)(O)O)[C@@H]3O)[C@@H](O)[C@H]2O)c1; assay: steady-state kinetics; reaction not stated; conditions: co-substrate not given; NADP+-dependent erythritol oxidation stated as not observed; varied: cofactor
Text: steady-state kinetics; reaction not stated on CmER (C. magnoliae JH110 erythrose reductase; CmER2 in Table 2)

purified protein [2] = substrate: NC(=O)C1=CN([C@@H]2O[C@H](COP(=O)(O)OP(=O)(O)OC[C@H]3O[C@@H](n4cnc5c(N)ncnc54)[C@H](OP(=O)(O)O)[C@@H]3O)[C@@H](O)[C@H]2O)C=CC1; assay: purified protein; conditions: D-erythrose saturating, pH 5.5, 42 °C, varied: cofactor
purified protein [3] = substrate: O=Cc1ccc([N+](=O)[O-])cc1; assay: purified protein; conditions: NADPH in excess, pH 5.5 and 42 °C (given for D-erythrose)

B1: CmER (C. magnoliae JH110 erythrose reductase; CmER2 in Table 2) (Entelexis paramagnoliae) (protein)
chain: MSSTYTLTRLSAPSMVLNSGSQIPAVGYGLWKQQGSEAKDSVRCAIESGYRHLDCATAYQNHKEVGQAIREAGVPRDELWITSKVWGTHFDNPEEGLDDILEELGVEYLDLLLLHLPVAFKRNPEDPKQLRGLPVDHDMKYADVWARMEKLPKSKVRNIGVSNLTVRALDELLQTAKVTPAVNQVEMHPNLPQKKLLDYCKSKGIVVQAYSPLAQGQHENPVVTDIADDLGVSPAQVVLSWGALRGTNILPKSSTPSRIRENLELIQLSDDHMRRIDALARR
notes: N-terminal GST fusion (pGEX-5X-3) in E. coli BL21 with chaperones, GST removed by Factor Xa
Km [1]: 240 ± 40 µM | kcat [1]: 0.84 ± 0.06 s⁻¹ | kcat/Km [1]: 3500 M⁻¹ s⁻¹ | Km (purified protein [2]): 16 ± 10 µM | kcat (purified protein [2]): 48 ± 2.5 s⁻¹ | kcat/Km (purified protein [2]): 3e+06 M⁻¹ s⁻¹ | Km (purified protein [3]): 170 ± 10 µM | kcat (purified protein [3]): 1.4 ± 0.1 s⁻¹ | kcat/Km (purified protein [3]): 8200 M⁻¹ s⁻¹
